US20080167219

Target: purified human factor X (UniProt P00742)
UniProt P00742, sequence (P00742 whole entry, looked up): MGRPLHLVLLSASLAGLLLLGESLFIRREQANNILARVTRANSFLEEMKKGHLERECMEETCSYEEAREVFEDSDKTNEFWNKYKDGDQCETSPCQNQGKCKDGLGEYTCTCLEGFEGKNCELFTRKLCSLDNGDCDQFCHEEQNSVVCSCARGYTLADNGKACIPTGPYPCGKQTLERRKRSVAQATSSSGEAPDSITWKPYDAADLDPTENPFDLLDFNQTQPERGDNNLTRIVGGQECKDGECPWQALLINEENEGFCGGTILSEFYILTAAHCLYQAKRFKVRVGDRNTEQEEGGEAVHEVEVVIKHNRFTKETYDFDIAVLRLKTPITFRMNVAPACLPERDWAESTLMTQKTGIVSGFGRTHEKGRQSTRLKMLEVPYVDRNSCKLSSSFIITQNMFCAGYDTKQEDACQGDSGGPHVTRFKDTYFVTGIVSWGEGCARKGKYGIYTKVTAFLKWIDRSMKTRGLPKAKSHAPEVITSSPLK

Question: Which KM for factor X, with 0.4 nM FVIIIa does the source give for “recombinant human factor IX IX-1, single alanine replacement at residue 86” here?
Answer: 0.0554 µM

Question: And the KM for factor X, without FVIIIa?
Answer: 0.532 µM

Question: And the Kcat, with 0.4 nM FVIIIa?
Answer: 5.09 s⁻¹

Question: What about the Kcat, without FVIIIa of the same substance?
Answer: 0.000225 s⁻¹

Question: And the Vmax of factor Xa generation, with 0.4 nM FVIIIa?
Answer: 15.1 nM FXa/min

Question: And the Vmax of factor Xa generation, without FVIIIa?
Answer: 0.14 nM FXa/min

Question: What about the kcat/KM, with 0.4 nM FVIIIa of the same substance?
Answer: 9.3e+07 M⁻¹ s⁻¹

Question: What about the kcat/KM, without FVIIIa of the same substance?
Answer: 429 M⁻¹ s⁻¹

Question: Which KM for factor X, with 0.4 nM FVIIIa does the source give for “recombinant wild type human factor IX (IX-7)” here?
Answer: 0.054 µM

Question: And the KM for factor X, without FVIIIa?
Answer: 0.757 µM

Question: And the Kcat, with 0.4 nM FVIIIa?
Answer: 14.2 s⁻¹

Question: What about the Kcat, without FVIIIa of the same substance?
Answer: 0.000262 s⁻¹

Question: What about the Vmax of factor Xa generation, with 0.4 nM FVIIIa of the same substance?
Answer: 27.8 nM FXa/min

Question: What about the Vmax of factor Xa generation, without FVIIIa of the same substance?
Answer: 0.16 nM FXa/min

Question: What about the kcat/KM, with 0.4 nM FVIIIa of the same substance?
Answer: 2.64e+08 M⁻¹ s⁻¹

Question: And the kcat/KM, without FVIIIa?
Answer: 353 M⁻¹ s⁻¹
